We go through twelve molecules from patent publication US20240294650A1 (Alector, published 2024).

Experiment [1] deals with T1, Recombinant human MerTK-human Fc Chimera protein (human, UniProt Q12866 26-499, limits assumed).
T1 construct: bought construct; also called MerTK-Fc (R&D systems, Cat #391-MR-100)
T1 sequence: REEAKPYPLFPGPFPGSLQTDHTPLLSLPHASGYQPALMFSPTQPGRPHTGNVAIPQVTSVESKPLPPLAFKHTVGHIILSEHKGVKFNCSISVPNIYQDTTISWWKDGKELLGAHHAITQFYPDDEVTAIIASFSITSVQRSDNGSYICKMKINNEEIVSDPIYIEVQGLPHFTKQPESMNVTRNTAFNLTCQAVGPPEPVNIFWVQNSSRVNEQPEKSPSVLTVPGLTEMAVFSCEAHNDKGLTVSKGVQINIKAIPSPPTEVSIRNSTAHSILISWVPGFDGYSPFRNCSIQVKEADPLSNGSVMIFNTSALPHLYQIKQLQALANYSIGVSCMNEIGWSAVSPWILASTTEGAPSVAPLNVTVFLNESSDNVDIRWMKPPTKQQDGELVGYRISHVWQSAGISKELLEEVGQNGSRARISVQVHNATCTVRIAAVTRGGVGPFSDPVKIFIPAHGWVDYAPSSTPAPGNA
Nature of the experiment: blocking ELISA, ProS-His on MerTK-Fc, Ab 66.6 nM, isotype=100%. As to the method: Briefly, rabbit anti-human IgG antibody (Jackson ImmunoResearch, Cat #309-005-008) was coated at 2 μg/ml onto high-protein binding plates at 4° C. overnight. After washing with 0.05% Tween20 in PBS three times, 5% BSA in PBS was added for 1 hour. Recombinant human MerTK-human Fe Chimera protein (R&D systems, Cat #391-MR-100) was added at 2 μg/ml for 1 hour and plates were washed before the addition of 40 μl of anti-MerTK hybridoma supernatants and 40 μl of His tag-conjugated recombinant Gas6 (R&D systems, Cat #885-GSB-050) at 3 μg/ml or His tag-conjugated recombinant ProS (R&D systems, Cat #9489-PS-100) at 20 μg/ml. After a further incubation for 1 hour, plates were washed and incubated for 1 hour with HRP-conjugated anti-6×His tagged antibody (Abcam, Cambridge, MA, Cat #ab1187). Plates were then washed and an HRP substrate, TMB, was added to develop the plates. The reaction was stopped by adding 50 μl 2N H₂SO₄ and the OD was measured using a spectrophotometer (BioTek).
Anti-MerTK antibodies were titrated to a final concentration from 66.6 nM to 4 pM and tested against anti-human MerTK antibody M6 (disclosed in WO2016/106221) or isotype control antibody.

In experiment [2] the target is T2, endogenous murine MerTK on bone marrow-derived macrophages (mouse, UniProt Q60805 19-994).
T2 construct: whole, on cells; MFI on MerTK KO BMDM subtracted; also called BMDM WT-KO
T2 sequence (looked up): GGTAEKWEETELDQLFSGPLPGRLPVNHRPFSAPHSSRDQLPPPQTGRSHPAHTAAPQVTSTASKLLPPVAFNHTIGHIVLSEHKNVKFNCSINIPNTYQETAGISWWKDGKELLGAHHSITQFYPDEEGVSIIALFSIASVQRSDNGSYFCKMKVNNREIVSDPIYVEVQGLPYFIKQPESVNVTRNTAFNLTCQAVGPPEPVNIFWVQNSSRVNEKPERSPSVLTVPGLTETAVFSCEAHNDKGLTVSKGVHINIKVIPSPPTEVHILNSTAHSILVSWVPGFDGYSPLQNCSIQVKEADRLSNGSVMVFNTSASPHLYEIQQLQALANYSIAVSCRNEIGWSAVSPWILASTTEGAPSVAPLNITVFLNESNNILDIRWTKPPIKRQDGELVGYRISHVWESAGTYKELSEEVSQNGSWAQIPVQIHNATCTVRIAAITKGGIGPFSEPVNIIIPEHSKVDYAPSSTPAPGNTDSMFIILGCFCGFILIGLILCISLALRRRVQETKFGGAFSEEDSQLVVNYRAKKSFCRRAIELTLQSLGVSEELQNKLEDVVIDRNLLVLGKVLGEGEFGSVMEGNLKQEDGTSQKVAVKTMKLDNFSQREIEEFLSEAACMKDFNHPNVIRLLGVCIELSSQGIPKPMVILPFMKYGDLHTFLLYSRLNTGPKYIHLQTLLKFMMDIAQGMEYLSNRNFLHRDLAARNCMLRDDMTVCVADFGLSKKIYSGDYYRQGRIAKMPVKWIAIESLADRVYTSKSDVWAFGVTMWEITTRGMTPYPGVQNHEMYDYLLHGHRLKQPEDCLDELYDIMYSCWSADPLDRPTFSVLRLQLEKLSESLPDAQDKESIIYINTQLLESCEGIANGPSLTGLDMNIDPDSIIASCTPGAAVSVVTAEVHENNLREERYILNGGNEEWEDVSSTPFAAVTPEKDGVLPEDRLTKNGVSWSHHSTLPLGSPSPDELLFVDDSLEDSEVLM
The experiment can be described thus: FACS, mouse BMDM, WT minus MerTK KO. On the procedure:
To determine whether recombinant anti-human MerTK antibodies of the present disclosure bind to human MerTK endogenously expressed on SK-MEL-5 cells and CHO cells overexpressing mouse MerTK (CHO-muMerTK OE cells), as compared to A375 and parental CHO cells as negative controls, the following experiments were performed. SK-MEL-5 cells, A375 cells, CHO-muMerTK OE cells, and CHO parental cells were plated at 100,000 cells/well. Anti-MerTK antibodies were added to the cells at 10 μg/ml. After 60 minutes on ice, cells were washed and then stained with PE-conjugated goat anti-human IgG antibody (Southern Biotech Cat #2040-09, Birmingham, AL) in the presence of Fc block solution on ice for 30 minutes, and then washed twice with cold FACS buffer (2% FBS in PBS). Mouse anti-human MerTK-PE conjugated (Biolegend, Clone 590H11G1E3) or anti-mouse MerTK-PE conjugated (ThermoFisher, Clone DS5MMER) antibodies were used as positive controls. Stained cells were acquired on a BD FACS Canto II cytometer and the mean fluorescence intensity (MFI) was calculated with FlowJo.
To confirm anti-MerTK antibody binding to endogenous murine MerTK, bone marrow-derived macrophages (BMDM) were isolated from MerTK wild type (WT) and knockout (KO) mice (The Jackson Laboratory, Cat #011122) using standard protocols. Briefly, cells isolated from the bone marrow were plated in the presence of 50 ng/ml M-CSF (R&D Systems, Cat #416-ML) for seven days to allow for differentiation into macrophages. Cell staining, FACs, and MFI were performed and calculated as described above.

B1: MTK-221 (antibody, human IgG1, V domains shown)
VH: QVTLKESGPGMLQSSQTLSLTCSFSGFSLSTSGMGVSWIRQPSGKGLEWLAHIYWDDDKRYNTSLQSRLTISKDTSRNQVFLKITSVDTADTATYFCGRLGAYSAFPYYFDYWGQGTTLTVSS
VL: DIQMTQSPSSLSASLGGKVTITCKASQDIHKHIAWYQHKPGKGPRLLIHYTSTLQPGIPSRFSGSGSGRDYSFSISNLEPEDLATYYCLQYDNLWTFGGGTKLEIK
As for B1, the “Percent ProS ligand binding” value in experiment [1] came to 72.8%.

B2: MTK-227 (antibody, human IgG1, V domains shown)
VH: EVKLVESGGGLVQPGGSLSLSCAASGFTFTDNYMTWVRQPPGKALEWLGFSRNKANGYTTEYSASVKGRFTISRDSSQSILYLQMNALRAEDSGTYYCARFPPHYYAGGYFDVWGTGTTVTVSS
VL: DIQMTQSPASLSASVGETVTITCRASENIYSYLAWYQQKQGKSPQLLVYNAKTLAEGVPSRFSGSGSGTQFSLKINSLQPADFGSYYCQHYYRTPPTFGGGTKLEIK
In turn, B2 gave an MFI in experiment [2] of 5020 MFI. Besides, the “Percent ProS ligand binding” value in experiment [1] was 84.5%.

B3: MTK-201 (antibody, human IgG1, V domains shown)
VH: QVQLRQSGPGLVQPSQSLSITCTVSGFSLSNYGLHWVRQSPGKGLEWLGVIWSGGITDYNAAFISRLSIIKDNSRSQVFFKMNSLQADDTAIYYCARKGHDPYAMDFWGQGTSVTVSS
VL: QIVLTQSPPIMSAFLGERVTMTCTASSSVSSSYLHWYRQMPGSSPKLWIYDTSNLASGVPARFSGSGSGTSYSLTISSMEAEDAATYYCHQYHHSPYTFGGGTKLEIK
As for B3, in experiment [1], the “Percent ProS ligand binding” value was 94.3%.

B4: MTK-203 (antibody, human IgG1, V domains shown)
VH: QVQLQQPGAELVKPGASVKVSCKASGYTFTNYWMHWVKQRPGQGLEWIGRIHPFDTETNDNQKFKGKATLTVDKSSSTAYMQLSSLTSEDSAVYYCVIPANGGFAYWGQGTLVTVSA
VL: ETTVTQSPASLSVATGEKVTIRCITSTDIGDDMNWYQQKPGEPPKVLISEGNSLRPGVPSRFSSSGYGTDFVFTIENTLSEDVADYFCLQSDNLPLTFGSGTKLEIK
In experiment [2], B4 had an MFI of 2980 MFI.

B5: MTK-224 (antibody, human IgG1, V domains shown)
VH: QVQLQQPGAELVKPGASVKVSCKASGYTFTSYWMHWVKQRPGQGLEWIGRIHPFDSDTNYNQKFKGKATLTVDKSSSTAYMQLSSLTSEDSAVYYCSIAGFAYWGQGTLVTVSA
VL: DIVMTQSPATLSVTPGDRVSLSCRASQIISDYLNWYQQKSHESPRLLIKYASQSISGIPSRFSGSGSGSDFTLSINSVEPEDVGVYYCQNGHSFPLTFGAGTKLELK
In the case of B5, in experiment [2], the MFI turned out to be 1860 MFI.

B6: MTK-209 (antibody, human IgG1, V domains shown)
VH: QVQLQQPGAELVKPGASVKVSCKASGYTFTNYWIHWVKQRPGQGLEWIGRIHPFDSEPNYNQKFKGKATLTVDKSSSTAYMHLTSLTSEDSAVYYCALASFAYWGQGTLVTVSA
VL: ETTVTQSPASLSMAMGEKATIRCITSTDIDDKMNWYQQKPGKPPKLLISAGNTLRPGVPSRFSSSGYGTDFVLTVENMLSEDVADYYCLQGGALPLTFGSGTKLEIK
In the case of B6, the MFI in experiment [2] was 813 MFI.

B7: MTK-228 (antibody, human IgG1, V domains shown)
VH: QDQLQQSGPELVKPGASVKISCKASGYSFTSYYIHWVKQRPGQGLEWVGWIFPGNGNTKYNERFKGKATLTADTSSSTAYMQLSSLTSEDSAVYYCARLGLIYALDYWGQGTSVTVSS
VL: DAVMTQTPLSLPVSLGDQASISCRSSQSLENSNGNTYLHWYLQKPGQSPQLLIYRVSNRFSGVLDRFSGSGSGTDFTLKISRVEAEDLGVYFCLQVTHVPFTFGSGTKLEIK
In experiment [2], B7 had an MFI of 7370 MFI. In addition, the “Percent ProS ligand binding” value in experiment [1] was 216%.

B8: MTK-230 (antibody, human IgG1, V domains shown)
VH: EVQLQQSGPELVKPGASVRIPCKASGYTFSDYNMDWVKQSHGKSLEWIGNINPNIGGTIYSQKFKGKATLTVDKSSSTAYMELRSLTSEDTAVYYCARGDYGFASWGQGTLVTVSA
VL: DIVLTQSPASLTVSLGQRATISCRASRSVSTSGYSYMHWYQQKPGQPPKLLIYLASNLESGVPARFSGSRSGTDFTLNIHPVEEEDAATYYCQHSREYPFTFGSGTKLEIK
As for B8, in experiment [2], the MFI stood at 9120 MFI.

B9: MTK-210 (antibody, human IgG1, V domains shown)
VH: QVQLQQSGPELVKPGASVKISCKASDYEFSRSWMNWVKQRPGKGLEWIGRIYPGDGDTNYNGKFKGKATLTADKSSNTAYMQLNSLTSEDSAVYFCARKGGYYYSISNYFDYWGQGTTLTVSS
VL: QIVLTQSPAIMSASPGVKVTMTCSASSSVSYMHWYQQKPGSSPRLLIYDTSNLASGVPVRFSGSGSGTSYSLTISRMEAEDAATYYCQQWSSYPPYTFGGGTKLEIK
Consider B9, for which, in experiment [1], the “Percent ProS ligand binding” value came out at 116%.

B10: MTK-208 (antibody, human IgG1, V domains shown)
VH: QVQLQQPGAELVVPGASVRLSCKASGYTFINYWMHWVKQRPGQGLEWIGEIDPSDSYANYNQKFKDKSTLSLDKSSSTAYMQLSSLTSEDSAVYYCARCDYYGRLDYWGQGTTLTVSS
VL: QVVLTQSPAIMSASPGEKVTITCSASSSVSYMLWFQQKPGTSPKLWIYSTSNLASGVPARFSGSGSGTSYSLTISRLEAEDAATYYCQQRSSYPPITFGAGTKLELK
Turning to B10, in experiment [1], the “Percent ProS ligand binding” value stood at 71.7%.

B11: MTK-214 (antibody, human IgG1, V domains shown)
VH: QVQLQQPGAELVKPGASVKVSCKASGYTFTNYWMHWMKQRPGQGLEWIGRIHPFDSDTNYNEKFTDKATLTVDKSSSTAYMQLSSLTSEDSAVYYCAIGTLIYWGQGTTLTASS
VL: DILLTQSPATLSVTPGETVSLSCRASQSIYKKLHWFQQRSHRSPRLLIKFASDSISGIPSRFTGSGSGTDYTLSINSVKPEDEAIYYCLQGYSTPLTFGAGTKLELK
Consider B11, for which, in experiment [2], the MFI turned out to be 2950 MFI.

B12: MTK-216 (antibody, human IgG1, V domains shown)
VH: EVQLVESGGGLVKPGGSLKLSCAASGFTFSDYGMHWVRQAPEKGLEWVAFISSGSTTIYYADTVKGRFTISRDNAKNTLILQMTSLRSEDTAIYYCTRGGFHLDYWGQGTTLTVSS
VL: SIMMTQSPSSLAVSAGEKVTMGCKSSQSVLYSANQQNYLAWYQQKPGQSLKLLIYWASTRESGVPDRFTGSGSGTDFTLTISSVQAEDLAVYYCHQYFSSWTFGGGTKLEIK
Consider B12, for which the “Percent ProS ligand binding” value in experiment [1] was found to be 72.8%.
